# Read-outs that look alike come from different tables or passages of the source.
# T1: PKC-ζ in extracts of human cell lines (human, UniProt Q05513 1-592)
# T1 construct: Denatured on the Western blot membrane; also called PKC-zeta (cell extract)
# T1 sequence (looked up): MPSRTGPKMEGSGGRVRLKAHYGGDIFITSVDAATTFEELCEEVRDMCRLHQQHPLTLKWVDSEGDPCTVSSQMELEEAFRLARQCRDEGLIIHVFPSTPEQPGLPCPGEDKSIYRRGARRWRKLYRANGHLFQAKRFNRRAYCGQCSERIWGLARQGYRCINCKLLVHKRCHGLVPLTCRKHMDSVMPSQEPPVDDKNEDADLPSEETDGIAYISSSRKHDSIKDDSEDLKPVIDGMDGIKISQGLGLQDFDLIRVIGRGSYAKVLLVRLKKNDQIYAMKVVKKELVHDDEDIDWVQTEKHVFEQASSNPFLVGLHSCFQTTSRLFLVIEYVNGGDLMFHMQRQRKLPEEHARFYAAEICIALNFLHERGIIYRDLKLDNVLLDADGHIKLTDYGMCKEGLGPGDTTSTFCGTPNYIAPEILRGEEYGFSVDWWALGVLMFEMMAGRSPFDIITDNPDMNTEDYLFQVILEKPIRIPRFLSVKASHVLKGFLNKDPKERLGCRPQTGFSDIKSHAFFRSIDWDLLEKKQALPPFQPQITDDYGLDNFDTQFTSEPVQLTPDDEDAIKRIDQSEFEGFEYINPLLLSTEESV
# T2: PKC-ι in extracts of human cell lines (human, UniProt P41743 2-596)
# T2 construct: Denatured on the Western blot membrane; also called PKC-iota (cell extract)
# T2 sequence (looked up): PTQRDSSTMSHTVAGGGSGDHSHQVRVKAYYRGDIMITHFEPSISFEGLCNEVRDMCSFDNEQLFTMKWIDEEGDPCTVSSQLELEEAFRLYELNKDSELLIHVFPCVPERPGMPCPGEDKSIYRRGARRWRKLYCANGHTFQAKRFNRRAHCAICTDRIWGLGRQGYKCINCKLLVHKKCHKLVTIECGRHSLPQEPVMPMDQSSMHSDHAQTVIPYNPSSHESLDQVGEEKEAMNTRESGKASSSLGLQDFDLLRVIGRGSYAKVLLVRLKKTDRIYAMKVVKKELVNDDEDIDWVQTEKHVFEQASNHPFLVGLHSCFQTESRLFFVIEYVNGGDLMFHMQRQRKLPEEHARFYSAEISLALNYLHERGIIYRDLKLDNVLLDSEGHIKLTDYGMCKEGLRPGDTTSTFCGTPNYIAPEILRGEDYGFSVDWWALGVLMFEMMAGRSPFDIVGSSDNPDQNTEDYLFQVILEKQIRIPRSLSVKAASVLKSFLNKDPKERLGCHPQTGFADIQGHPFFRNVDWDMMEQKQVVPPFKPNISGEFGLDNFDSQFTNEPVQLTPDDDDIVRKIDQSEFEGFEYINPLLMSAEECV
# T3: PKC-ε, purified isoform (UniProt Q02156 1-737)
# T3 construct: also called PKC-epsilon; epsilon
# T3 sequence (looked up): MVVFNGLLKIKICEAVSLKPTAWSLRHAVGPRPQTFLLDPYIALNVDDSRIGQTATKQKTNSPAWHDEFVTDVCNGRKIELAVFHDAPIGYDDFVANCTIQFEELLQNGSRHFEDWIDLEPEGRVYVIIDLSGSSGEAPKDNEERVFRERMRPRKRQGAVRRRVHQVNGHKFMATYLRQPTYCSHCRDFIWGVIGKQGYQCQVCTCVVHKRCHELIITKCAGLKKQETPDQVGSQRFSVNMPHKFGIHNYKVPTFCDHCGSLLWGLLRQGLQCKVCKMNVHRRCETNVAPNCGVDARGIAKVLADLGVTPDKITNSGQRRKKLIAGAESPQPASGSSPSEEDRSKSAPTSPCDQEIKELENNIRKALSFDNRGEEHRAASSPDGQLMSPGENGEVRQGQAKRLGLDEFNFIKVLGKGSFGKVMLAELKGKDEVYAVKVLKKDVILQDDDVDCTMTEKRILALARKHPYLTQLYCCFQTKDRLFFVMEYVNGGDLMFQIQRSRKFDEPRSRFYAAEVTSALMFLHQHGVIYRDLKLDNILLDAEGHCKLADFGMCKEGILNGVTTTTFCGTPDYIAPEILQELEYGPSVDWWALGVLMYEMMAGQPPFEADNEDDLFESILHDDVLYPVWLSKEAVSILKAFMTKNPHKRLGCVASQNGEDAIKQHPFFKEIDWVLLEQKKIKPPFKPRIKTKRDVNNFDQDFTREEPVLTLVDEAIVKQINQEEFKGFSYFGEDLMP
# Columns and labels:
# [1] = target: T1, PKC-ζ in extracts of human cell lines; assay: Western-blot competition, cell extracts: PRE at 10X/20X the anti-PKC zeta primary antibody concentration competes with that antibody; band densitometry (lower band = PRE bound)
# [2] = target: T2, PKC-ι in extracts of human cell lines; assay: Western-blot competition, cell extracts: PRE at 10X/20X the anti-PKC iota primary antibody concentration competes with that antibody; band densitometry (lower band = PRE bound)
# [3] = target: T4, PKC-βII, purified isoform (UniProt P05771-2 1-673); assay: purified isoform competition ELISA, summary grade
# T4 construct: also called PKC-beta II; beta 2
# [4] = target: T1, PKC-ζ in extracts of human cell lines; assay: Western-blot competition, cell extracts: PRE at 10X/20X the anti-PKC zeta primary antibody concentration competes with that antibody; band densitometry (lower band = PRE bound); remark: listed apart in the source
# [5] = target: T2, PKC-ι in extracts of human cell lines; assay: Western-blot competition, cell extracts: PRE at 10X/20X the anti-PKC iota primary antibody concentration competes with that antibody; band densitometry (lower band = PRE bound); remark: listed apart in the source
# [6] = target: T3, PKC-ε, purified isoform; assay: competition ELISA on coated purified PKC-ε vs anti-PKC ε antibody; PRE 50 µM
# [7] = target: T3, PKC-ε, purified isoform; assay: competition ELISA on coated purified PKC-ε vs anti-PKC ε antibody; PRE 200 µM
# [8] = target: T3, PKC-ε, purified isoform; assay: competition ELISA on coated purified PKC-ε vs anti-PKC ε antibody; PRE 100 µM
# [9] = target: T5, PKC-βI, purified isoform (UniProt P05771-1 1-671); assay: purified isoform competition ELISA, summary grade
# T5 construct: also called PKC-beta I; beta 1
# [10] = target: T1, PKC-ζ in extracts of human cell lines; assay: Western-blot competition, cell extracts: PRE at 10X/20X the anti-PKC zeta primary antibody concentration competes with that antibody; band densitometry (lower band = PRE bound); remark: listed apart in the source
# [11] = target: T2, PKC-ι in extracts of human cell lines; assay: Western-blot competition, cell extracts: PRE at 10X/20X the anti-PKC iota primary antibody concentration competes with that antibody; band densitometry (lower band = PRE bound); remark: listed apart in the source
# [12] = target: T2, PKC-ι in extracts of human cell lines; assay: as above; remark: listed apart in the source
# T4 sequence (P05771 other isoform, or with tags, fused parts or gaps limits assumed): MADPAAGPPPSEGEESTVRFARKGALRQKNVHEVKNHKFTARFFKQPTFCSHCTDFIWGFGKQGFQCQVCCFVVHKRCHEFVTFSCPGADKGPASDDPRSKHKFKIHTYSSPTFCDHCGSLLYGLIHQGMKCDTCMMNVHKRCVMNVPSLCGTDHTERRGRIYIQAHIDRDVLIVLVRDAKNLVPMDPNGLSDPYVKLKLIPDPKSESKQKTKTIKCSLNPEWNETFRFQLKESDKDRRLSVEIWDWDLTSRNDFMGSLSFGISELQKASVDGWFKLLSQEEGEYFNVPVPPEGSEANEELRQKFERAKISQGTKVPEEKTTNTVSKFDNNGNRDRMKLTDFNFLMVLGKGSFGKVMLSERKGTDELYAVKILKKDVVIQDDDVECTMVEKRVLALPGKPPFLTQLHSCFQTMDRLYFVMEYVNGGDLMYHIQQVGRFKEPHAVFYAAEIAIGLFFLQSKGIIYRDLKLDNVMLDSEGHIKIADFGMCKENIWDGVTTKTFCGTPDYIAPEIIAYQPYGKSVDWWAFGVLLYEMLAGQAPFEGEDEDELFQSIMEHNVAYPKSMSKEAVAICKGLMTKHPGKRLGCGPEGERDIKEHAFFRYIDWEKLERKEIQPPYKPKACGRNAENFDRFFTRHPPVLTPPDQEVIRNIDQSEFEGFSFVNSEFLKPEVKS
# T5 sequence (P05771 whole entry, canonical isoform): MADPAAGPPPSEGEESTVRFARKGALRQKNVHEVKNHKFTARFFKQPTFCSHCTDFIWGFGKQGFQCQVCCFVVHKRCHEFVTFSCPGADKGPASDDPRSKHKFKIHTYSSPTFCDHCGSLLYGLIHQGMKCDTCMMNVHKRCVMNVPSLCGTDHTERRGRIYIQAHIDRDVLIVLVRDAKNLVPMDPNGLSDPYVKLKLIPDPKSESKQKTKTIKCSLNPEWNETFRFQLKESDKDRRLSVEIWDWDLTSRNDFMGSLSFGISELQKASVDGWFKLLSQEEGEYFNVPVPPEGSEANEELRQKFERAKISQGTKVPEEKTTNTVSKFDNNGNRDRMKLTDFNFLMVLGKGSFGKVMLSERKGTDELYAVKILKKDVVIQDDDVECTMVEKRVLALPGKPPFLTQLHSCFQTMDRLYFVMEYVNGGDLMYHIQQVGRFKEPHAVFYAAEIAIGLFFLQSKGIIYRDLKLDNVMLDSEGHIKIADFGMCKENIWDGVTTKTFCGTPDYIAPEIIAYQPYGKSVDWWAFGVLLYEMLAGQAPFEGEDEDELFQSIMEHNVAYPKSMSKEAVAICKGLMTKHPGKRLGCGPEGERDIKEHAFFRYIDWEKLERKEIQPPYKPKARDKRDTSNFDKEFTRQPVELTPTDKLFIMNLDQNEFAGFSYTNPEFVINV
Binder,binding result [3],relative binding capacity [6],relative binding capacity [7],relative binding capacity [8],further results
RRKKGGKDFVVKR (also called peptide recognition element 1) [PRE 1],no binding,,,,binding result [1]: binds; binding result [2]: no binding (tested: 20X the primary antibody concentration)
Ac-AKGIQEVKGGKDAQNLIGISI-NH2 (also called peptide recognition element 5) [PRE 5],,,,,binding result [4]: binds
Ac-ISIGILQNADK-NH2 (also called peptide recognition element 7) [PRE 7],,8.04%,3.78%,14%,binding result [5]: no binding (tested: 20X the primary antibody concentration)
ILEDKGGDAQNLIGISI (also called peptide recognition element 8) [PRE 8],,,,,binding result [9]: no binding
Ac-KDANQLIGISI-NH2 (also called peptide recognition element 6) [PRE 6],no binding,,,,binding result [10]: no binding (tested: 20X the primary antibody concentration); binding result [11]: no binding (tested: 20X the primary antibody concentration)
Ac-AKGIQEVKGGDAQNLIGISI-NH2 (also called peptide recognition element 3) [PRE 3],,34%,31%,31.5%,binding result [12]: binds

# From patent US20110039770A1 (PHARMAGAP, published 2011)
